# Structures can show the parent of a compound that is named as a salt.
# B1: 24p3: recombinant mouse lipocalin 24p3, ligand of 24p3R; used 32P-labeled or fluorescently derivatized (protein)
# chain: QDSTQNLIPAPSLLTVPLQPDFRSDQFRGRWYVVGLAGNAVQKKTEGSFTMYSTIYELQENNSYNVTSILVRDQDQGCRYWIRTFVPSSRAGQFTLGNMHRYPQVQSYNVQVATTDYNQFAMVFFRKTSENKQYFKITLYGRTKELSPELKERFTRFAKSLGLKDDNIIFSVPTDQCIDN
# B2: apo-24p3: bacterially derived iron-lacking 24p3 (protein)
# chain: B1 chain
# B3: holo-24p3: bacterially derived iron-loaded 24p3 (protein)
# chain: B1 chain
# Tests used:
# HIFIα and Nip3 = experiment: expression of HIFIα and Nip3 (response to decreased intracellular iron); assay type: cell-based
# Protocol: It is well established that iron chelators can induce apoptosis. […] To examine this possibility, the expression of two genes, HIFIα and Nip3, was analyzed. The two genes are unregulated in response to decreased intracellular iron concentration. As a control, cells were treated with the bacterial siderophore desferrioxamine (DFO), an iron chelator, and analyzed in parallel.
# [1] = test system: calcein-loaded HeLa cells; experiment: intracellular iron in living cells with iron-sensing dye calcein; assay type: cell-based; conditions: for calcein fluorescence (inverse to intracellular iron level): calcein-loaded HeLa cells expressing 24p3 receptor, FIG. 3
# Protocol: In this particular example, intracellular iron levels were measured in living cells using the iron-sensing dye calcein. Calcein is a fluorescent, cell permeable dye. Because its fluorescence is quenched upon iron binding, calcein can be used to measure free (also called labile or chelatable) iron in living cells.
# 24p3-mediated apoptosis = experiment: ability of holo-transferrin to block 24p3-mediated apoptosis; assay type: cell-based
# Text: If the basis of 24p3-mediated apoptosis is in fact decreased intracellular iron concentration, then apoptosis should be prevented by iron delivery. To test this prediction, the ability of holo-transferrin to block 24p3-mediated apoptosis was examined.
# [2] = test system: HeLa/24p3R-L, HeLa/24p3R-S, or HeLa/X7 cells; experiment: intracellular iron monitored by expression of iron-regulated genes ferritin and transferrin receptor 1; assay type: cell-based
# Protocol: Experiments were performed to determine whether 24p3R expression would confer on cells the ability to deliver iron in a 24p3-dependent fashion. In these experiments, as well as those described below, three preparations of 24p3 were used: bacterially derived iron-loaded 24p3 (holo-24p3), bacterially derived iron-lacking 24p3 (apo-24p3), and conditioned medium (CM) from cytokine-deprived FL5.12 cells, which contains 24p3 (FL5.12-24p3). The three preparations of 24p3 were added to HeLa/24p3R-L, HeLa/24p3R-S, or HeLa/X7 cells, and, as a control, iron-containing transferrin (holo-transferrin) was added in parallel samples. To monitor intracellular iron concentration, the expression of two iron-regulated genes, ferritin and transferrin receptor 1 were examined.
# 24p3R [3] = experiment: Internalization assay of 32P-24p3; assay type: cell-based, murine
# Protocol: HeLa cells constitutively expressing 24p3R were treated with ^32P-24p3 and at various time points cells were washed three times with PBS and incubated for 15 minutes in proteinase K, trypsin, and EDTA solution to remove the extracellular portion of the receptor. The dislodged cells were then collected and counted.
# 24p3 and other lipocalins are internalized following binding to their cell surface receptor. […] Thus, cells ectopically expressing 24p3R can be used as reagents for examining the function of 24p3 and 24p3R as well as in assays to identify compounds that affect expression or activity of a 24p3R or a 24p3 (e.g., 24p3 or NGAL).
# 24p3R [4] = experiment: ligand-cell binding of 32P-labeled 24p3 to HeLa cells ectopically expressing 24p3R; set-up: species or system murine
# Text: HeLa cells expressed only low levels of 24p3R. To perform functional experiments HeLa cell lines were derived that stably express recombinant N-terminal epitope-tagged derivatives of 24p3R-L and 24p3R-S (HeLa/24p3R-L and HeLa/24p3R-S) and, as a control, the empty expression vector (HeLa/X7). Immunoblot analysis confirmed expression of 24p3R in HeLa/24p3R-L and HeLa/24p3R-S cells.
# To determine whether the ectopically expressed 24p3R was able to bind 24p3, a series of ligand-cell binding experiments were performed. […] Binding of ^32P-labeled 24p3 to HeLa/24p3R-L and HeLa/24p3R-S was saturable and blocked by the addition of an excess of unlabeled 24p3. […] Thus, ectopically expressed 24p3R can bind to 24p3.
# [5] = test system: 32D cells or 32D/BCR-ABL^p190 cells; experiment: cellular ligand-uptake of fluorescently derivatized 24p3 by fluorescence microscopy; assay type: cell-based, mouse
# Protocol: A cellular ligand-uptake experiment was performed in which 24p3 was fluorescently derivatized, added to 32D cells or 32D/BCR-ABL^p190 cells, and 24p3 internalization analyzed by fluorescence microscopy.
# [6] = test system: HeLa/24p3R-L, HeLa/24p3R-S, or HeLa/X7 cells; experiment: 24p3-dependent apoptosis by annexin V-FITC staining; assay type: cell-based; conditions: for apoptosis (annexin V-FITC staining; confirmed by PARP and caspase 3 cleavage): HeLa/24p3R-L and HeLa/24p3R-S cells
# Protocol: To examine the ability of 24p3R to mediate 24p3-dependent apoptosis, different preparations of 24p3 were added to the three HeLa cell lines described above and apoptosis was analyzed by annexin V-FITC staining. […] Apoptosis was confirmed by analyzing proteolytic cleavage of PARP (poly(ADP-ribose)polymerase) and caspase 3.
# [7] = test system: HeLa/24p3R-L, HeLa/24p3R-S, or HeLa/X7 cells; experiment: colorimetric determination of intracellular free (non-haem) iron concentration; assay type: cell-based
# Protocol: Colorimetric determination of intracellular non-haem iron concentration was measured as described by Leardi et al., (1998, Br. J. Haematol., 102:746-752) with modifications. Briefly, cells were washed twice with ice-cold PBS and then lysed with lysis buffer (1% TRITON™-X100, 10% glycerol. 25 mM HEPES, pH 7.4, in PBS) and incubated with 0.3 N HCl. The proteins in the lysates were precipitated with 10% TCA (trichloroacetic acid) and centrifuged at 1200×g for 15 minutes. The lysates were then mixed with iron chromogen, FERROZINE® (Sigma) in iron buffer reagent (1.5% hydroxylamine HCl in acetate buffer, pH 4.5) and the absorbance was measured spectrophotometrically at 560 nm. The non-heme iron concentration was measured by interpolating the absorbance of each sample using preset iron standards (Sigma) and expressed as mg/dL.
# To confirm the results disclosed above, a […] assay that directly measures free iron concentration was employed.
# [8] = HeLa/24p3R-L and HeLa/24p3R-S cells
# Sequence of 24p3R (as listed by the source): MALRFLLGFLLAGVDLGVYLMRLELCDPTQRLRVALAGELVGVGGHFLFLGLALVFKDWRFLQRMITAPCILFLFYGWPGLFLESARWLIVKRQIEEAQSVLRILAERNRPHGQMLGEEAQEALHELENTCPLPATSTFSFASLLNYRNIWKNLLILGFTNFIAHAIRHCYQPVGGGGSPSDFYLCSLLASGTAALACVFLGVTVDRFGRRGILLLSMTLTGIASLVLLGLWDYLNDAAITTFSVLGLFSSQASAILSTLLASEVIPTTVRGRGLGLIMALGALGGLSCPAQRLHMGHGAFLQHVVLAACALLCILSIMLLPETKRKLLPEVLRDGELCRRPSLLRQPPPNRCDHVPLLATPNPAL
molecule,measurement,setting,value
"CC(=O)N(O)CCCCCNC(=O)CCC(=O)N(O)CCCCCNC(=O)CCC(=O)N(O)CCCCCN [DFO, deferoxamine mesylate, reference compound]",expression of HIFIα and Nip3,HIFIα and Nip3; all three HeLa cell lines,induced expression of HIFIα and Nip3
same,calcein fluorescence (inverse to intracellular iron level),[1],large increase in fluorescence emission
same,intracellular iron levels (calcein),[1]; control HeLa cells (HeLa/X7),altered iron levels
"holo-transferrin: iron-containing transferrin, used as control [reference compound]",effect on apoptosis by 24p3,24p3-mediated apoptosis,blocked apoptosis by 24p3
same,effect on apoptosis induced by other agents,24p3-mediated apoptosis; apoptosis induced by etoposide or staurosporine,had no effect
same,intracellular iron concentration (ferritin / transferrin receptor 1 expression),[2]; all three HeLa cell lines,increased iron concentration
same,levels of ferritin,[2]; all three HeLa cell lines,increased levels of ferritin
same,levels of transferrin receptor 1,[2]; all three HeLa cell lines,decreased levels of transferrin receptor 1
B1,internalization of 32P-labeled 24p3,24p3R [3]; [8],internalized by HeLa/24p3R-L and HeLa/24p3R-S cells
same,internalization of 32P-labeled 24p3,24p3R [3]; HeLa/X7 cells,not by HeLa/X7 cells
same,binding of 32P-labeled 24p3 to cells,24p3R [4]; [8],bound to HeLa/24p3R-L and HeLa/24p3R-S cells
same,binding of 32P-labeled 24p3 to cells,24p3R [4]; HeLa/X7 cells (empty vector control),not to HeLa/X7 cells
same,internalization of fluorescently labeled 24p3,[5]; 32D cells,internalized
same,internalization of fluorescently labeled 24p3,[5]; 32D/BCR-ABL^p190 cells,not 32D/BCR-ABL^p190 cells
B2,apoptosis (annexin V-FITC staining; confirmed by PARP and caspase 3 cleavage),[6],induced apoptosis
same,apoptosis (annexin V-FITC staining),[6]; HeLa/X7 cells,not in HeLa/X7 cells
same,free iron concentration (colorimetric assay),[7]; [8],substantially reduced free iron concentration
same,HIFIα levels and Nip3 transcription,HIFIα and Nip3; HeLa/24p3R-S cells,increased HIFα levels and Nip3 transcription
same,calcein fluorescence (inverse to intracellular iron level),[1],large increase in fluorescence emission
same,intracellular iron concentration (ferritin / transferrin receptor 1 expression),[2]; all three HeLa cell lines,did not increase intracellular iron
B3,apoptosis (annexin V-FITC staining; confirmed by PARP and caspase 3 cleavage),[6],failed to induce apoptosis
same,free iron concentration (colorimetric assay),[7]; [8],increased intracellular iron
same,free iron concentration (colorimetric assay),[7]; HeLa/X7 cells,not in HeLa/X7 cells
same,calcein fluorescence (inverse to intracellular iron level),[1],decrease in fluorescence intensity
same,intracellular iron concentration (ferritin / transferrin receptor 1 expression),[2]; [8],increased intracellular iron concentration
same,intracellular iron concentration (ferritin / transferrin receptor 1 expression),[2]; HeLa/X7 cells,not in HeLa/X7 cells
